Assay results taken from patent US7657380.

T1: human CD30 (commercial, conjugated to digoxigenin) (human, UniProt P28908 19-379, limits assumed, conjugated to digoxigenin (DIG))
T1 sequence (looked up): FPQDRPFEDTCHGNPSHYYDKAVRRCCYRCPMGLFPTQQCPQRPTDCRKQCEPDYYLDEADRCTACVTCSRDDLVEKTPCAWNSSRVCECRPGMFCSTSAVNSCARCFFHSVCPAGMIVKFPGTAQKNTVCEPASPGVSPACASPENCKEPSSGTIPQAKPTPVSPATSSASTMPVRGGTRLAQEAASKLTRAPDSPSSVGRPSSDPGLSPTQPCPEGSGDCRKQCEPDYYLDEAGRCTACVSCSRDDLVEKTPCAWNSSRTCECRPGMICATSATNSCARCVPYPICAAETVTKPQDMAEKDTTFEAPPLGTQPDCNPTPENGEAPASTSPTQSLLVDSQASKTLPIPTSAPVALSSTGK

B1: AC10 H3/L3.41 (antibody, IgG1, name in Kabat numbering, V domains shown)
VH: QIQLVQSGPEVKKPGASVKVSCKASGYTFTDYYITWVRQAPGQGLEWMGWIYPGSGNTKYNEKFQGRFVFSVDTSASTAYLQISSLKAEDTAVYFCANYGNYWFAYWGQGTLVTVSS
VL: DIVLTQSPDSLAVSLGERATINCKASQSVDFDGDSYMNWYQQKPGQPPKVLIYAASNLETGIPARFSGSGSGTDFTLTINSLEAEDAATYYCQQSNEDPWTFGGGTKVEIK
B2: AC10 H3/L3.42 (antibody, IgG1, name in Kabat numbering, V domains shown)
VH: QIQLVQSGPEVKKPGASVKVSCKASGYTFTDYYITWVRQAPGQGLEWMGWIYPGSGNTKYNEKFQGRFVFSVDTSASTAYLQISSLKAEDTAVYFCANYGNYWFAYWGQGTLVTVSS
VL: DIVLTQSPDSLAVSLGERATINCKASQSVDFDGDSYMNWYQQKPGQPPKVLIYAASNLESGVPARFSGSGSGTDFTLTINSLEAEDAATYYCQQSNEDPWTFGGGTKVEIK
B3: AC10 H3/L3.60 (antibody, IgG1, name in Kabat numbering, V domains shown)
VH: QIQLVQSGPEVKKPGASVKVSCKASGYTFTDYYITWVRQAPGQGLEWMGWIYPGSGNTKYNEKFQGRFVFSVDTSASTAYLQISSLKAEDTAVYFCANYGNYWFAYWGQGTLVTVSS
VL: DIVLTQSPDSLAVSLGERATINCKASQSVDFDGDSYMNWYQQKPGQPPKVLIYAASNLESGIPARFSGSGSGTDFTLTINSLEAEDAATYYCQQSNEFPWTFGGGTKVEIK
B4: AC10 H3/L3.48 (antibody, IgG1, name in Kabat numbering, V domains shown)
VH: QIQLVQSGPEVKKPGASVKVSCKASGYTFTDYYITWVRQAPGQGLEWMGWIYPGSGNTKYNEKFQGRFVFSVDTSASTAYLQISSLKAEDTAVYFCANYGNYWFAYWGQGTLVTVSS
VL: DIVLTQSPDSLAVSLGERATINCKASQSVDFDGDSYMNWYQQKPGQPPKVLIYAASNLESGIPARFSGSGSGTDFTLTINSLEAEDAATYYCQQGNEDPWTFGGGTKVEIK
B5: AC10 H3/L3.51 (antibody, IgG1, name in Kabat numbering, V domains shown)
VH: QIQLVQSGPEVKKPGASVKVSCKASGYTFTDYYITWVRQAPGQGLEWMGWIYPGSGNTKYNEKFQGRFVFSVDTSASTAYLQISSLKAEDTAVYFCANYGNYWFAYWGQGTLVTVSS
VL: DIVLTQSPDSLAVSLGERATINCKASQSVDFDGDSYMNWYQQKPGQPPKVLIYAASNLESGIPARFSGSGSGTDFTLTINSLEAEDAATYYCQQYNEDPWTFGGGTKVEIK
B6: AC10 H3/L3.62 (antibody, IgG1, name in Kabat numbering, V domains shown)
VH: QIQLVQSGPEVKKPGASVKVSCKASGYTFTDYYITWVRQAPGQGLEWMGWIYPGSGNTKYNEKFQGRFVFSVDTSASTAYLQISSLKAEDTAVYFCANYGNYWFAYWGQGTLVTVSS
VL: DIVLTQSPDSLAVSLGERATINCKASQSVDFDGDSYMNWYQQKPGQPPKVLIYAASNLESGIPARFSGSGSGTDFTLTINSLEAEDAATYYCQQSNELPWTFGGGTKVEIK
B7: AC10 H3/L3.58 (antibody, IgG1, name in Kabat numbering, V domains shown)
VH: QIQLVQSGPEVKKPGASVKVSCKASGYTFTDYYITWVRQAPGQGLEWMGWIYPGSGNTKYNEKFQGRFVFSVDTSASTAYLQISSLKAEDTAVYFCANYGNYWFAYWGQGTLVTVSS
VL: DIVLTQSPDSLAVSLGERATINCKASQSVDFDGDSYMNWYQQKPGQPPKVLIYAASNLESGIPARFSGSGSGTDFTLTINSLEAEDAATYYCQQSNSDPWTFGGGTKVEIK
B8: AC10 H3/L3.49 (antibody, IgG1, name in Kabat numbering, V domains shown)
VH: QIQLVQSGPEVKKPGASVKVSCKASGYTFTDYYITWVRQAPGQGLEWMGWIYPGSGNTKYNEKFQGRFVFSVDTSASTAYLQISSLKAEDTAVYFCANYGNYWFAYWGQGTLVTVSS
VL: DIVLTQSPDSLAVSLGERATINCKASQSVDFDGDSYMNWYQQKPGQPPKVLIYAASNLESGIPARFSGSGSGTDFTLTINSLEAEDAATYYCQQHNEDPWTFGGGTKVEIK
B9: AC10 H3/L3.56 (antibody, IgG1, name in Kabat numbering, V domains shown)
VH: QIQLVQSGPEVKKPGASVKVSCKASGYTFTDYYITWVRQAPGQGLEWMGWIYPGSGNTKYNEKFQGRFVFSVDTSASTAYLQISSLKAEDTAVYFCANYGNYWFAYWGQGTLVTVSS
VL: DIVLTQSPDSLAVSLGERATINCKASQSVDFDGDSYMNWYQQKPGQPPKVLIYAASNLESGIPARFSGSGSGTDFTLTINSLEAEDAATYYCQQSNNDPWTFGGGTKVEIK
B10: AC10 H3/L3.50 (antibody, IgG1, name in Kabat numbering, V domains shown)
VH: QIQLVQSGPEVKKPGASVKVSCKASGYTFTDYYITWVRQAPGQGLEWMGWIYPGSGNTKYNEKFQGRFVFSVDTSASTAYLQISSLKAEDTAVYFCANYGNYWFAYWGQGTLVTVSS
VL: DIVLTQSPDSLAVSLGERATINCKASQSVDFDGDSYMNWYQQKPGQPPKVLIYAASNLESGIPARFSGSGSGTDFTLTINSLEAEDAATYYCQQLNEDPWTFGGGTKVEIK
B11: AC10 H3/L3.44 (antibody, IgG1, name in Kabat numbering, V domains shown)
VH: QIQLVQSGPEVKKPGASVKVSCKASGYTFTDYYITWVRQAPGQGLEWMGWIYPGSGNTKYNEKFQGRFVFSVDTSASTAYLQISSLKAEDTAVYFCANYGNYWFAYWGQGTLVTVSS
VL: DIVLTQSPDSLAVSLGERATINCKASQSVDFDGDSYMNWYQQKPGQPPKVLIYAASNLESGIPSRFSGSGSGTDFTLTINSLEAEDAATYYCQQSNEDPWTFGGGTKVEIK
B12: AC10 H3/L3.53 (antibody, IgG1, name in Kabat numbering, V domains shown)
VH: QIQLVQSGPEVKKPGASVKVSCKASGYTFTDYYITWVRQAPGQGLEWMGWIYPGSGNTKYNEKFQGRFVFSVDTSASTAYLQISSLKAEDTAVYFCANYGNYWFAYWGQGTLVTVSS
VL: DIVLTQSPDSLAVSLGERATINCKASQSVDFDGDSYMNWYQQKPGQPPKVLIYAASNLESGIPARFSGSGSGTDFTLTINSLEAEDAATYYCQQSSEDPWTFGGGTKVEIK
B13: AC10 H3/L3.54 (antibody, IgG1, name in Kabat numbering, V domains shown)
VH: QIQLVQSGPEVKKPGASVKVSCKASGYTFTDYYITWVRQAPGQGLEWMGWIYPGSGNTKYNEKFQGRFVFSVDTSASTAYLQISSLKAEDTAVYFCANYGNYWFAYWGQGTLVTVSS
VL: DIVLTQSPDSLAVSLGERATINCKASQSVDFDGDSYMNWYQQKPGQPPKVLIYAASNLESGIPARFSGSGSGTDFTLTINSLEAEDAATYYCQQSYEDPWTFGGGTKVEIK
B14: AC10 H3/L3.63 (antibody, IgG1, name in Kabat numbering, V domains shown)
VH: QIQLVQSGPEVKKPGASVKVSCKASGYTFTDYYITWVRQAPGQGLEWMGWIYPGSGNTKYNEKFQGRFVFSVDTSASTAYLQISSLKAEDTAVYFCANYGNYWFAYWGQGTLVTVSS
VL: DIVLTQSPDSLAVSLGERATINCKASQSVDFDGDSYMNWYQQKPGQPPKVLIYAASNLESGIPARFSGSGSGTDFTLTINSLEAEDAATYYCQQSNESPWTFGGGTKVEIK
B15: AC10 H3/L3.43 (antibody, IgG1, name in Kabat numbering, V domains shown)
VH: QIQLVQSGPEVKKPGASVKVSCKASGYTFTDYYITWVRQAPGQGLEWMGWIYPGSGNTKYNEKFQGRFVFSVDTSASTAYLQISSLKAEDTAVYFCANYGNYWFAYWGQGTLVTVSS
VL: DIVLTQSPDSLAVSLGERATINCKASQSVDFDGDSYMNWYQQKPGQPPKVLIYAASNLESGIPDRFSGSGSGTDFTLTINSLEAEDAATYYCQQSNEDPWTFGGGTKVEIK
B16: AC10 H3/L3.55 (antibody, IgG1, name in Kabat numbering, V domains shown)
VH: QIQLVQSGPEVKKPGASVKVSCKASGYTFTDYYITWVRQAPGQGLEWMGWIYPGSGNTKYNEKFQGRFVFSVDTSASTAYLQISSLKAEDTAVYFCANYGNYWFAYWGQGTLVTVSS
VL: DIVLTQSPDSLAVSLGERATINCKASQSVDFDGDSYMNWYQQKPGQPPKVLIYAASNLESGIPARFSGSGSGTDFTLTINSLEAEDAATYYCQQSNKDPWTFGGGTKVEIK

biological target: T1, human CD30 (commercial, conjugated to …); assay: AlphaScreen competition

Point of comparison: B3, “Fold IC50 vs H3/L3” value 0.02 fold. Against it:
- B1 — higher, 1.8 fold
- B2 — higher, 1.55 fold
- B4 — higher, 0.29 fold
- B5 — the same, 0.02 fold
- B6 — higher, 0.46 fold
- B7 — higher, 0.49 fold
- B8 — lower, 0.01 fold
- B9 — higher, 0.64 fold
- B10 — the same, 0.02 fold
- B11 — higher, 1.08 fold
- B12 — higher, 0.48 fold
- B13 — higher, 0.96 fold
- B14 — higher, 0.57 fold
- B15 — higher, 1.16 fold
- B16 — higher, 0.27 fold
